Results from US20230346967A1 (published 2023).

What was measured:
recombinant human TfR1 = biological target: T1, recombinant human TfR1 (human, UniProt P02786 89-760); experiment: printed: DMPK oligo conjugate binding to hTfR1
T1 construct: also called hTfR1; huTfR1

recombinant human TfR2 = biological target: T2, recombinant human TfR2 (human, UniProt Q9UP52 105-801, limits assumed); experiment: SPR
T2 construct: also called hTfR2; transferrin receptor 2
T2 sequence (looked up): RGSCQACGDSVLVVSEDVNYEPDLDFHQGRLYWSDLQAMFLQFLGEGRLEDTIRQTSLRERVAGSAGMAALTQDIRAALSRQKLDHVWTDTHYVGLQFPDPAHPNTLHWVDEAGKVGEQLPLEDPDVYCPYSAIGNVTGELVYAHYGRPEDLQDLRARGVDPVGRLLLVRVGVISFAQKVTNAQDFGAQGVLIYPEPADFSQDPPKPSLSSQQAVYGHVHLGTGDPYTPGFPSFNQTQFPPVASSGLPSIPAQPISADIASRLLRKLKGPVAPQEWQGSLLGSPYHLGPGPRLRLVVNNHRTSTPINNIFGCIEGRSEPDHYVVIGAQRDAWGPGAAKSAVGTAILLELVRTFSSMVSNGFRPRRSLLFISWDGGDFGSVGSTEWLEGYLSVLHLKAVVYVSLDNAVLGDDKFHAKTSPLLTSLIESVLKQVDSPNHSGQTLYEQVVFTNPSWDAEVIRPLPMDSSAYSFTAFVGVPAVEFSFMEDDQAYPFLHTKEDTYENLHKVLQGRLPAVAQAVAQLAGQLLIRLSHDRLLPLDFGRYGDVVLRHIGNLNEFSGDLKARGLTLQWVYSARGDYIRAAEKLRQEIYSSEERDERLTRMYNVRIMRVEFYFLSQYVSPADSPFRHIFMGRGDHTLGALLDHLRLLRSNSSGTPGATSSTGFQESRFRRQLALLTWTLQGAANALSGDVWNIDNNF

recombinant mouse TfR1 = recombinant mouse TfR1 (mouse, UniProt Q62351 89-763); experiment: ELISA, plates precoated with recombinant TfR1
Protocol: (§1) Serial dilutions of the Fab were added to plates precoated with recombinant human, cynomolgus monkey, mouse, or rat TfR1. After a short incubation, binding of the Fab was quantified by addition of a fluorescently tagged anti-(H+L) IgG secondary antibody and measurement of fluorescence intensity at 495 nm excitation and 520 nm emission.

recombinant rat TfR1 = recombinant rat TfR1 (rat, UniProt Q99376 89-761, limits assumed); experiment: ELISA, plates precoated with recombinant TfR1
Protocol: as §1

recombinant mouse TfR1, sequence (Q62351 89-763 limits assumed): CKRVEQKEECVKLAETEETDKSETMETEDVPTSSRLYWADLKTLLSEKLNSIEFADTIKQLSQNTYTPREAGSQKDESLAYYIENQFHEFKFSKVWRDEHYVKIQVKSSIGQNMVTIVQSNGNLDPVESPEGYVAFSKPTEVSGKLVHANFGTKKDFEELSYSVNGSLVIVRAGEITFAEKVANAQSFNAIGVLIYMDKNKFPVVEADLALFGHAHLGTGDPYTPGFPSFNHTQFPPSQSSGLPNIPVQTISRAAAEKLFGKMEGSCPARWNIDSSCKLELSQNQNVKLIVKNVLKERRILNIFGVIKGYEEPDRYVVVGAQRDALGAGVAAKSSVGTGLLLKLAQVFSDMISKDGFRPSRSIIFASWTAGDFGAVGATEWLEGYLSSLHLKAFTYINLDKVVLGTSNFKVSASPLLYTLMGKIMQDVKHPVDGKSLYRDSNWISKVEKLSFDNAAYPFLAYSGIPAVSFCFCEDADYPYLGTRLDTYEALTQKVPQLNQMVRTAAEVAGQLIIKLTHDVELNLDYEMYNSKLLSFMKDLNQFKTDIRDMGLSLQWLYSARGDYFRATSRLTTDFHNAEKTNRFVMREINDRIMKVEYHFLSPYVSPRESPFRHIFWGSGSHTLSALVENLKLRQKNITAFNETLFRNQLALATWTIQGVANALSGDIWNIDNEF
T1 sequence (P02786 89-760 limits assumed): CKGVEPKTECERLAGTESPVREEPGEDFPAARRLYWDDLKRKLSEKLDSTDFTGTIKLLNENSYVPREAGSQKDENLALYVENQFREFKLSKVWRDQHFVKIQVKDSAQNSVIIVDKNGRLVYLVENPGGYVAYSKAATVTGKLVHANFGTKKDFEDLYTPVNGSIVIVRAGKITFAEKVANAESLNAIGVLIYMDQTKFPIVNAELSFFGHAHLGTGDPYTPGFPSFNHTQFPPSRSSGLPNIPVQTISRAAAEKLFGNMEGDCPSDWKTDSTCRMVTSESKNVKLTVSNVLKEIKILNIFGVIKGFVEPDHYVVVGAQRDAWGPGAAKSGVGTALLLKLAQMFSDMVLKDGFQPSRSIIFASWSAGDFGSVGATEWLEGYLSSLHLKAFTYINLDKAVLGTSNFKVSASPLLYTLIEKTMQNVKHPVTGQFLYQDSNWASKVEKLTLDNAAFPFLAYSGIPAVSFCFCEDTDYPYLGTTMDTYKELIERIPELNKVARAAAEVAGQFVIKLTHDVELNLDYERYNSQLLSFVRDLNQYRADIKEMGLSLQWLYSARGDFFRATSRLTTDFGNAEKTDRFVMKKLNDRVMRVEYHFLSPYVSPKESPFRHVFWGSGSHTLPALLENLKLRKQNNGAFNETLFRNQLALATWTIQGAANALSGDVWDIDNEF
recombinant rat TfR1, sequence (Q99376 89-761 limits assumed): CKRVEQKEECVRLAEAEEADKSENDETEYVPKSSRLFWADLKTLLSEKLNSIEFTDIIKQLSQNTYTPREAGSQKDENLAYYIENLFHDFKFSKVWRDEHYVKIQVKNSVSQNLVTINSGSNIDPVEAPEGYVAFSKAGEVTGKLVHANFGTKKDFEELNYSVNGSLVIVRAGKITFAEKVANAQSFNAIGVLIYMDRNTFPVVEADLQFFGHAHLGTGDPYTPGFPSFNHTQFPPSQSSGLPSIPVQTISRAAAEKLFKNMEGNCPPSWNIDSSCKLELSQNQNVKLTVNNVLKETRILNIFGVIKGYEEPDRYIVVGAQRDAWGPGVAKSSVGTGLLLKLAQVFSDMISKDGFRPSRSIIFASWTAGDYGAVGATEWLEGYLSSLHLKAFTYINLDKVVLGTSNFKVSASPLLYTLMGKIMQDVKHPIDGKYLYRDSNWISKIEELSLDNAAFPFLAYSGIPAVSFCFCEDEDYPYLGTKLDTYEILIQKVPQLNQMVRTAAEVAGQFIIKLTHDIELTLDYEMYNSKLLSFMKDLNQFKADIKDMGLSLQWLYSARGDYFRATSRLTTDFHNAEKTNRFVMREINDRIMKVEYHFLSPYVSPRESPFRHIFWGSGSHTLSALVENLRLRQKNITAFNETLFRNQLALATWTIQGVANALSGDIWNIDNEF

B1: humanized anti-TfR Fab 3A4 VH3/Vκ4 conjugated to DMPK-targeting oligonucleotide ASO300 (Fab, V domains shown)
VH: EVQLVQSGSELKKPGASVKVSCTASGFNIKDDYMYWVRQPPGKGLEWIGWIDPENGDTEYASKFQDRVTVTADTSTNTAYMELSSLRSEDTAVYYCTLWLRRGLDYWGQGTLVTVSS
VL: DIVMTQSPLSLPVTPGEPASISCRSSKSLLHSNGYTYLFWFQQRPGQSPRLLIYRMSNLASGVPDRFSGSGSGTDFTLKISRVEAEDVGVYYCMQHLEYPFTFGGGTKVEIKR
modifications: DMPK-targeting oligonucleotide ASO300 conjugated to the Fab; chain and residue not stated for this example
notes: The oligonucleotide may sit on either chain; also called 3A4 (VH3/Vk4) conjugate; DMPK oligo conjugate
Recombinant human TfR1
  EC50: 2.84 nM

B2: humanized anti-TfR Fab 3M12 VH4/Vκ3 (Fab, V domains shown)
VH: QVQLQESGPGLVKPSQTLSLTCTVTGYSITSGYYWNWIRQPPGKGLEWIGYITFDGANNYNPSLKNRVSISRDTSKNQFSLKLSSVTAEDTATYYCTRSSYDYDVLDYWGQGTTVTVSS
VL: DIQMTQSPSSLSASVGDRVTITCRASQDISNFLNWYQQKPGQPVKLLIYYTSRLHSGVPSRFSGSGSGTDFTLTISSLQPEDFATYYCQQGHTLPYTFGQGTKLEIKR
notes: also called 3M12 (VH4/Vk3); 3M12 VH4/VK3
Recombinant human TfR2
  binding result: no binding
Recombinant mouse TfR1
  binding result: no binding
Recombinant rat TfR1
  binding result: no binding
